We go through one molecule from article PMC7591906, “pHLIP ICG for delineation of tumors and blood flow during fluorescence-guided surgery” (Scientific Reports, 2020).

Structures are written as SMILES. Entries after “also recorded” stand apart in the source; their conditions may differ. Peptide text beside a SMILES is read from it. * marks the point of attachment. X1 = CC1(C)C(/C=C/C=C/C=C/C=C2/N(CCCCCC(=O)NCCN3C(=O)CC(*)C3=O)c3ccc4ccccc4c3C2(C)C)=[N+](CCCCS(=O)(=O)[O-])c2ccc3ccccc3c21

Data set [1] in a line: Stability of pHLIP ICG formulations in solution (analytical HPLC). Type of data set: physicochemical. Conditions: protected from light. As to the method: Stability studies were performed with pHLIP ICG formulations in PBS and PBS containing 5% DMSO or 5% Ethanol (vol/vol). The tumor targeting capability in mice is independent of formulation. Formulation of pHLIP ICG in PBS/5% Ethanol was used in PoC animal studies, and in toxicity studies on mice, rats and dogs. For the PBS/5%DMSO formulation 1 mg of the lyophilized powder of pHLIP ICG was dissolved in 75 µl of DMSO (to make 3.2 mM solution), then 10 µl of 3.2 mM stock was mixed with 190 µl PBS to make a 0.16 mM solution of pHLIP ICG (5% DMSO). For the PBS/5%Ethanol formulation, the lyophilized powder of pHLIP ICG was dissolved at a concentration of 1.6 mg/ml in PBS/5% Ethanol solution. Finally, the formulation selected for human use was prepared by dissolving the lyophilized powder of pHLIP ICG at a concentration of 0.8 mg/ml in PBS. All formulations were kept at room temperature and protected from light. The aliquots were taken at 0.5 or 1, 3, 6, 24, 48 and 72 hours (102 hrs for pHLIP ICG dissolved in PBS) for analytical HPLC analysis using a Zorbax SB-C18 column (4.6 x 250 mm, 5 µm) with a binary solvent system using a […] water and acetonitrile gradient with 0.05% TFA over 25 min. […] Formulation of pHLIP ICG in PBS was stable in solution for 4 days kept at RT.

Data set [2] is described as follows: Pharmacokinetics in mice, single i.v. injection. Type of data set: in vivo, B6D2F1 mice. The following applies: single i.v. 12.3 mg/kg. As to the method: The purpose of this study, performed at MSK, was to determine the pharmacokinetic parameters of pHLIP ICG in 3 female B6D2F1 mice following a single i.v. injection of pHLIP ICG at a dose of 12.3 mg/kg. Blood was collected in EDTA tubes at 5, 15, 30 minutes, and 1, 2, 4, 6, 8, 16, and 24 hours post-injection, followed by centrifugation to separate the plasma, and flash frozen. At time of analysis, samples were thawed, extracted, and analyzed via LC-MS as per the validated protocol using pHLIPIS.

A short description of data set [3]: Local tolerance/irritancy in New Zealand white rabbits (GLP). Type of data set: in vivo. The following applies: single 0.124 and 1.86 mg/kg, i.v., intra-arterial, perivenous and subcutaneous. How it is done:
The objective of this GLP study performed at CRL was to compare the i.v., intra-arterial, perivascular and subcutaneous routes for potential irritation following a single injection of pHLIP ICG in the rabbits.
The following parameters and end points were evaluated in this study: clinical signs, local irritation assessment, body weights (for dose calculation only), and histopathology of the injection sites. There were no clinical signs, local irritation or any microscopic changes associated with pHLIP ICG during the study.

The nature of data set [4]: Kinetics of insertion into POPC liposomes (stopped-flow tryptophan fluorescence). It counts as physicochemical. The following applies: pH drop from pH 8 to pH 5, Trp fluorescence, bi-exponential fit, about 15% of final adjustment. As to the method: POPC (1-palmitoyl-2-oleoyl-sn-glycero-3-phosphocholine, Avanti Polar Lipids, Inc.) liposomes were used in biophysical measurements to mimic cell membranes and investigate the pHLIP ICG interactions with lipid bilayers. Large unilamellar vesicles (LUVs) were prepared by extrusion. POPC dissolved in chloroform was desolvated in a rotary evaporator and placed under high vacuum for 2 hours to create a phospholipid film. Lipids were then rehydrated in phosphate buffer (pH8) and repeatedly extruded through membranes with a pore size of 100 nm to make LUVs.
To follow pHLIP ICG insertion into the lipid bilayer of POPC liposomes in real-time, kinetics measurements were performed using a SFM-300 mixing system (Bio-Logic Science Instruments) in combination with a MOS-450 spectrometer with its temperature control set to 25.0°C. pHLIP ICG pre-mixed with POPC liposomes in phosphate buffer at pH8 were mixed (5 ms dead time) with acid to drop the pH from pH8 to pH5 and promote pHLIP peptide insertion into the bilayers. The insertion process was monitored by recording changes of the tryptophan fluorescence of pHLIP peptide excited at 295 nm and using a cut off filter at 320 nm.

In data set [5] the test system is human peripheral blood lymphocytes. Briefly: In vitro mammalian cell micronucleus test. Type of data set: cell-based. Conditions: up to 0.5 mg/mL. As to the method:
The objective of this study performed at CRL was to determine the potential genotoxicity of pHLIP ICG using an in vitro mammalian cell micronucleus test in human peripheral blood lymphocytes.
Human peripheral blood lymphocytes were treated with pHLIP ICG at levels up to the standard limit of 0.5 mg/mL. […] The negative control results were within the laboratory negative historical control range. Lymphocytes were also incubated with standard positive controls, which caused statistically significant increases in the proportion of cells with micronuclei, confirming the sensitivity of the test system and the activity of the S9 mix. All criteria for a valid assay were therefore met.

In data set [6] the test system is human mammary epithelial cells (HMEpC). Description: Cytotoxicity, cell viability (CellTiter 96 AQueous One). Type of data set: cell-based. Conditions: 0.125 up to 16 µM, 72 h, absorbance 490 nm, triplicate. How it is done:
Human mammary epithelial cells (HMEpC) acquired from Cell Applications, Inc. were authenticated and stored according to supplier’s instructions. Cells were cultured in mammary epithelial cell growth medium provided by the manufacturer. HMEpC cells were loaded in the wells of 96-well plates (~6,000 cells per well) and incubated overnight. Increasing amounts of pHLIP ICG dissolved in cell growth medium were added to cells to give the following final concentrations of pHLIP ICG with cells: 0.125, 0.25, 0.5, 1, 2, 4, 8 and 16 μM. After 48 and 72 hours of incubation, a colorimetric reagent (CellTiter 96 AQueous One Solution Assay, Promega) was added for 2 hours followed by measuring absorbance at 490 nm to assess cell viability. All samples were prepared in triplicate and each experiment was repeated several times.

Data set [7] in a line: 7-day repeat i.v. toxicity in B6D2F1 mice (GLP). It counts as in vivo. The following applies: 13.6 mg/kg/day i.v. for 7 days, incidence and severity decreasing over time. As to the method: The purpose of this GLP study performed at MSK was to assess the acute and delayed toxicity of a repeat administration of pHLIP ICG in mice. The pHLIP ICG was administered for 7 consecutive days.
Throughout the study, body weights, clinical signs, clinical pathology (hematology and clinical chemistry), and histopathology were collected.

By clearance is commonly meant the volume of plasma or blood freed of the substance per unit of time. For `CC(C)C[C@H](NC(=O)[C@H](Cc1ccc(O)cc1)NC(=O)[C@H](C)NC(=O)[C@H](CCCNC(=N)N)NC(=O)[C@H](Cc1c[nH]c2ccccc12)NC(=O)[C@@H]1CCCN1C(=O)[C@H](CC(N)=O)NC(=O)[C@H](CCC(N)=O)NC(=O)[C@H](CC(=O)O)NC(=O)[C@H](CC(=O)O)NC(=O)[C@H](CSC1CC(=O)N(CCNC(=O)CCCCCN2/C(=C/C=C/C=C/C=C/C3=[N+](CCCCS(=O)(=O)[O-])c4ccc5ccccc5c4C3(C)C)C(C)(C)c3c2ccc2ccccc32)C1=O)NC(=O)[C@H](C)N)C(=O)N[C@@H](CC(=O)O)C(=O)N[C@@H](CC(C)C)C(=O)N[C@@H](CC(C)C)C(=O)N[C@@H](Cc1ccccc1)C(=O)N1CCC[C@H]1C(=O)N[C@H](C(=O)N[C@@H](CC(=O)O)C(=O)N[C@H](C(=O)N[C@@H](CC(C)C)C(=O)N[C@@H](CC(C)C)C(=O)N[C@@H](CC(C)C)C(=O)N[C@@H](CC(=O)O)C(=O)N[C@@H](CC(C)C)C(=O)N[C@@H](CC(C)C)C(=O)N[C@@H](Cc1c[nH]c2ccccc12)C(=O)N[C@@H](C)C(=O)O)[C@@H](C)O)[C@@H](C)O` (stereo partly drawn) [pHLIP ICG] (H-AC(X1)DDQNPWRAYLDLLFPTDTLLLDLLWA-OH), the “Stability (purity) of all formulations” value in data set [1] (PBS, PBS/5% DMSO, PBS/5% Ethanol, up to 72 hours at room temperature, analytical HPLC) is given as more than 95%. For the same molecule, the “Time stable in solution” value in data set [1] (reconstituted in PBS (0.8 mg/ml), room temperature, analytical HPLC Zorbax SB-C18) stood at 4 days. For the same molecule, in data set [2] (female, B6D2F1, mouse, plasma, iv, mean, read-out: Clearance (Cl) (converted)), the clearance was 0.159 mL/min/kg. In addition, the half-life in data set [2] (female, B6D2F1, mouse, plasma, iv, mean, read-out: Elimination half-time (T1/2) (converted)) is 3.9 h. Also, the Vd in data set [2] (female, B6D2F1, mouse, plasma, iv, mean, read-out: Volume of distribution (Vz)) worked out at 0.0535 L/kg. The “Systemic exposure quantifiable up to” value in data set [2] (LC-MS) is recorded as “up to 16 hours”. For the same molecule, the Local tolerance result in data set [3] was “well tolerated; also recorded: well-tolerated and did not result in any pHLIP ICG-related changes”. The “Rate of insertion into lipid bilayer, slow component” value in data set [4] worked out at 0.077 s⁻¹. In addition, in data set [5], the “Cytotoxicity or precipitation in the assay” value was “no pHLIP ICG related cytotoxicity or precipitation was observed”. In addition, the Induction of micronuclei entry in data set [5] (4 h without/with S9, 24 h without S9) was “did not show any evidence of genotoxic activity; also recorded: negative for the induction of micronuclei”. The “Cytotoxic effect (cell viability)” value in data set [6] is recorded as “did not show any cytotoxic effect at any tested concentration”. The Toxicity finding entry in data set [7] was “may be associated with germ cell degeneration in males”.
